Residue numbers refer to the chain shown, from its start.
B1: IL-21 v31.23 (ligand)
chain: QGQDRHMIRMRQLIDIVDQLKNYVNDLVPEFLPAPEDVETNCEWSAFSCFQKAQLKSANTGNNERIINVSIKKLKQKPPGGEGGGGGGGEGGCPSCDSYEKKPPKEFLERFKSLLQKMIHQHLSSRTHGSEDS
notes: also called hIL21 v31.23
B2: IL-21 v31.51 (ligand)
chain: B1 chain with R9G, Q76R
notes: also called hIL21 v31.51

Biological target: human IL-21 receptor (human, UniProt Q9HBE5 20-232, limits assumed)
Experiment: KD at 37 C; method and format not stated

Sequence of human IL-21 receptor (Q9HBE5 20-232 limits assumed): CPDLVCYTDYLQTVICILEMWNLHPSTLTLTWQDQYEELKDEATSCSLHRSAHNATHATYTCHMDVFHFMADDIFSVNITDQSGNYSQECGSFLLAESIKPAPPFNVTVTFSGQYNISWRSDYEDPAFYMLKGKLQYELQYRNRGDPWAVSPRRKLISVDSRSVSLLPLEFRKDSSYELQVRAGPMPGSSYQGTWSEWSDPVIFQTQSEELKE

| Binder | Kd |
| --- | --- |
| B1 | 6.06 µM |
| B2 | 7.73 µM |

Reference: patent US20250339519A1 (ASHER BIOTHERAPEUTICS, published 2025)
